Results reported in patent publication US20070203325A1 (published 2007).

Columns and labels:
GST-impβ = target: T1, GST-impβ (UniProt Q14974 1-876); test: GST pull-down of in vitro translated 35S-labelled protein (0.25% NP40), autoradiography
T1 construct: also called Imps

GST-Impα (Rch1) = GST-Impα (Rch1) (human, UniProt P52292 1-529); test: as above

T1 sequence (Q14974 whole entry): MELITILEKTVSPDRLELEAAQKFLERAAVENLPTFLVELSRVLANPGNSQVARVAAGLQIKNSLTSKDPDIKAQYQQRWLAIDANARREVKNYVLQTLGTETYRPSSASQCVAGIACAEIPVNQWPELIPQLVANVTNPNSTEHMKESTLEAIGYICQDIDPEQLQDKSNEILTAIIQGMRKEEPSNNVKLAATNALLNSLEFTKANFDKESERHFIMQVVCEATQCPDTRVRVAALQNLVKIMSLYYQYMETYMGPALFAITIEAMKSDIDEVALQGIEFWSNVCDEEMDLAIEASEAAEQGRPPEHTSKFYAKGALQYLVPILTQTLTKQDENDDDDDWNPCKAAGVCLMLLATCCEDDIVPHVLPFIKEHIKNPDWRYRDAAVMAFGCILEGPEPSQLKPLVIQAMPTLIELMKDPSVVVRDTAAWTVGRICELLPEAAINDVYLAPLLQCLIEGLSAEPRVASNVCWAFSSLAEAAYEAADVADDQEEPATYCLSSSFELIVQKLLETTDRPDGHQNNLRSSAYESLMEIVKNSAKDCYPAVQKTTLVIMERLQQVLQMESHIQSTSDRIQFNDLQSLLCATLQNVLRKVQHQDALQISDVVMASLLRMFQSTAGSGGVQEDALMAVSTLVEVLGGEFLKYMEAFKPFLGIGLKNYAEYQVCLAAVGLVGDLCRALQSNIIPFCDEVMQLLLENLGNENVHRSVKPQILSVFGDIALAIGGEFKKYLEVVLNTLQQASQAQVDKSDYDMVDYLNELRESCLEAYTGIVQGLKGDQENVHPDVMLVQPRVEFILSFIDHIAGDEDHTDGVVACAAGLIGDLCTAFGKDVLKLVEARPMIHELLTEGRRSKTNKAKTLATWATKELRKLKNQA

B1: T7-CAT (enzyme)
chain: MEKKITGYTTVDISQWHRKEHFEAFQSVAQCTYNQTVQLDITAFLKTVKKNKHKFYPAFIHILARLMNAHPEFRMAMKDGELVIWDSVHPCYTVFHEQTETFSSLWSEYHDDFRQFLHIYSQDVACYGENLAYFPKGFIENMFFVSANPWVSFTSFDLNVANMDNFFAPVFTMGKYYTQGDKVLMPLAIQVHHAVCDGFHVGRMLNELQQYCDEWQGGA
binding result (GST-impβ): no binding
binding result (GST-Impα (Rch1)): no binding
